Data taken from US20150133651, “CslA9 Gluco-mannan Synthase Gene” (published 2015).

Legend:
MYB83 (At3g08500) = MYB83 (At3g08500) (Arabidopsis thaliana, UniProt Q9C6U1 Q9C6U1:1-343); test: EMSA; 10 mM Tris pH 7.5, 50 mM KCl, 5 mM MgCl2, poly(dI-dC); conditions: tags: GST fusion, E. coli Rosetta gami; label: 32P
Procedure: (§1) DNA fragments for EMSA were obtained by PCR-amplification and labeled with [γ-³²P]ATP using T4 polynucleotide kinase (NEB). The end-labeled probes were purified with Microspin S-200 HR column (GE Healthcare). The labeled DNA fragments were incubated for 25 min with 50 ng of GST-MYB46, GST-MYB83, GST-bZIP1 and GSTANAC041 in a binding buffer [10 mM Tris (pH 7.5), 50 mM KCl, 1 mM DTT, 2.5% glycerol, 5 mM MgCl₂, 100 μg/ml BSA, and 50 ng/μL poly(dI-dC)]. Five percent polyacrylamide gel electrophoresis (PAGE) was used to separate the recombinant protein-bound DNA fragments from the unbound ones. The gel was dried and placed in a film cassette and exposed to X-ray film (Kodak) for overnight. Radioactive fragments were visualized by autoradiography.

MYB46 = MYB46 (Arabidopsis thaliana, UniProt Q9LXV2 SEQ:1-280); test: EMSA; 10 mM Tris pH 7.5, 50 mM KCl, 5 mM MgCl2, poly(dI-dC); competed by 50x unlabeled probe; conditions: tags: GST fusion, E. coli Rosetta gami; label: 32P
Procedure: as §1
To evaluate whether MYB46 could directly bind to the CSLA9 promoter sequence, electrophoretic mobility shift assays (EMSAs) were performed with the GST-MYB46 fusion protein as described in Example 1.

Chain of MYB83 (At3g08500) (Q9C6U1 whole entry, the tested form may be a part, one chain of several): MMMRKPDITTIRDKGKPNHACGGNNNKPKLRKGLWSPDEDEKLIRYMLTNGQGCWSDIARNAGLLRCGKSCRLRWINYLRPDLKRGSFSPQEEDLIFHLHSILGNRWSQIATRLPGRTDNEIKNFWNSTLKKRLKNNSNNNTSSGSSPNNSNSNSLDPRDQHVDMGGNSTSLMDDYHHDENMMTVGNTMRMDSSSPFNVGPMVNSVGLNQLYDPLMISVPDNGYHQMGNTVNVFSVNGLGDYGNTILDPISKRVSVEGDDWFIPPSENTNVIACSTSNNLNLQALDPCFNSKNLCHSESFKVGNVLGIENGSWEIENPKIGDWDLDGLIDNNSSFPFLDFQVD
Chain of MYB46 (Q9LXV2 whole entry, the tested form may be a part): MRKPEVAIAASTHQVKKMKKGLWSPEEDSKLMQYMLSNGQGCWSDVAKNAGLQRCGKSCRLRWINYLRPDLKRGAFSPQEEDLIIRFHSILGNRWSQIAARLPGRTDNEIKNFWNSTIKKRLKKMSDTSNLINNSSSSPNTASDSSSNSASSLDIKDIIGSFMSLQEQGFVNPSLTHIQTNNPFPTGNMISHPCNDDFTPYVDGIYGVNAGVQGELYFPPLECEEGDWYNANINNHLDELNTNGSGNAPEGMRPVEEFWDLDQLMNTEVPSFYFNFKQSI

B1: CSLA9 promoter -705 to -556 (dsDNA)
DNA 1: CTTAAAATAACAATTTGTTTTGTATCTTCGCCTGGACGTCATTAATGTTTGTGTCGTTCAATAATGTTTGGTAGTTATATATAGAAAGAGCAAATTTATGGTTGATTGATGGTGCAAAAAAATTCATTTCTCTATATTCTAGAGAAATAA
DNA 2: TTATTTCTCTAGAATATAGAGAAATGAATTTTTTTGCACCATCAATCAACCATAAATTTGCTCTTTCTATATATAACTACCAAACATTATTGAACGACACAAACATTAATGACGTCCAGGCGAAGATACAAAACAAATTGTTATTTTAAG
MYB83 (At3g08500)
  binding result: binds
MYB46
  binding result: binds
